The target in experiment [1] is CPXV ortholog of L1 (cowpox virus). The experiment in a line: lysate ELISA. (In an ELISA, binding on a coated surface is turned into a signal by an enzyme label.)
Experiment [2] concerns the target VARV ortholog of L1 (variola virus). The experiment in a line: purified antigen ELISA.
Experiment [3] deals with CPXV ortholog of L1 (cowpox virus). The experiment in a line: cell-based or functional assay.
Experiment [4] addresses MPXV ortholog of L1 (monkeypox virus). The experiment in a line: cell-based or functional assay.
Experiment [5] concerns the target CPXV ortholog of D8 (cowpox virus). The experiment in a line: lysate ELISA.
Experiment [6] addresses MPXV ortholog of D8 (monkeypox virus). The experiment in a line: lysate ELISA.
Experiment [7] deals with CPXV ortholog of D8 (cowpox virus). The experiment in a line: cell-based or functional assay.
In experiment [8] the target is CPXV ortholog of A27 (cowpox virus). The experiment in a line: lysate ELISA.
Experiment [9] addresses MPXV ortholog of the A27 VACV protein (monkeypox virus). The experiment in a line: lysate ELISA.
For experiment [10] the target is unchanged. The experiment in a line: purified antigen ELISA.
Experiment [11] concerns the target VARV ortholog of A27 (variola virus). The experiment in a line: purified antigen ELISA.
In experiment [12] the target is MPXV ortholog of the A27 VACV protein (monkeypox virus). The experiment in a line: cell-based or functional assay.

The EC50 is the midpoint of the concentration-response curve. Read a low EC50 as an effect from little substance.

Changes are numbered by the printed parent chain.

B1: MPXV-26 (antibody, V domains shown)
VH: QVQLVQSGGGLIQPGGSLRLSCVVSGFNVATNYMSWVRQAPGKGLEWVSVIYSGGSTYYADSVKGRFTISRDNSKNTVFLQMNSLRPEDTAAYYCAKGGGLGLDYWGQGTLVTVSS
VL: QSALTQPPSASGSPGQSVTITCTGSSSDVGGYNYVSWYQQHPGKAPKVVIYEVNKRPSGVPHRFSGSKSGNTASLTVSGLQAEDEADYYCSSYAGTETVAFGGGTKLTVL
In experiment [1], B1 returned a half-maximal effective concentration (EC50) of 0.05 µg/mL. In addition, the EC50 in [2] stood at 0.02 µg/mL. In experiment [3], this molecule displayed a PRNT Emax, CPXV MV of 99%; a PRNT Emax, CPXV MV+C' of 93%; a PRNT IC50, CPXV MV of 0.07 µg/mL; a PRNT IC50, CPXV MV+C' of 0.2 µg/mL. Also, in experiment [4], the PRNT Emax, MPXV MV was determined as 96%; the PRNT Emax, MPXV MV+C' is 97%; the PRNT IC50, MPXV MV is 3 µg/mL; the PRNT IC50, MPXV MV+C' is 6.2 µg/mL.

B2: MPXV-27 (antibody, V domains shown)
VH: QVQLQQWGAGLLKPSETLSLTCDVYGGSFSGYYWSWIRQPPGKGLEWIGEINHSGSTTYTPSLRSRVTISVDTSKNQFSLKLSSVTAADTAVYYCARVLSGWLPFPNYYYYMDVWGKGTTVT
VL: DIQMTQSPSSLPASVGDRVTITCRASQDIRNNLGWYQQKPGKAPERLIYGTSNLQSGVPSRFSGSGSGTEFTLTISSLQPEDFATYYCLQHNSYPPTFGRGTKVEIK
B2 showed an EC50 in [5] of 0.02 µg/mL. In experiment [6], the EC50 is 0.02 µg/mL. In addition, in experiment [7], the PRNT Emax, CPXV MV+C' came out at 75% and the PRNT IC50, CPXV MV+C' came out at 0.08 µg/mL.

B3: VACV-300 (antibody, V domains shown)
V domain 1: QVQLVQSGAEVKKPGSSVKVSCKASGGTFSSYAISWVRQAPGQGLEWMGGIIPIFGTANYAQKFQGRVTITADESTGTAYMELTSLRSEDTAIYYCARASEQWLASINWFDPWGQGTLVTVSS
V domain 2: QSALTQPASVSGSPGQSITISCTGTSSDVGSYNLVSWYQQHPGKAPKLMIYEVSKRPSGVSNRFSASKSGNTASLTISGLQAEDEADYYCCSYAGSSTLVFGGGTQVTVL
Regarding B3, the EC50 in experiment [8] was 0.06 µg/mL; in experiment [9] it was over 0.68 µg/mL; in experiment [10], 0.14 µg/mL; in [11], 0.79 µg/mL.

B4: VACV-136 (antibody, V domains shown)
V domain 1: QVTLKESGPVLVNPTETLTLTCTVSGFSLSNARMRVSWIRQPPGKALEWLAHIFSNDEKSYSTSLKSRLTISKDTSKSQVVLTMTNMDPVDTASYYCARMRGEYNSYYFDSWGQGTLVTVS
V domain 2: SYELTQPPSVSVSPGQTARITCSGDALPNQYAYWYQQKPGQAPVLVIYKDSERPSGIPERFSGSSSGTTVTLTISGVQAEDEADYYCQSADSSGTSVVFGGGTQVTV
For the molecule B4, the concentration for a half-maximal effect (EC50) in experiment [5] is 0.05 µg/mL; in experiment [6], 0.04 µg/mL. Further, the PRNT Emax, CPXV MV+C' in experiment [7] was determined as 75%. The molecule also gave a PRNT IC50, CPXV MV+C' in [7] of 0.2 µg/mL.

B5: MPXV-96 (antibody, V domains shown)
VH: QVQLQQWGAGLLISSETLSLTCGVYGGSFSGYYWTWIRQPPGKGLEWIGEINYVGSTNYNPSLKSRVTMSVDTSKNHFSLSLSSVTAADTAVYYCARGLRGNSVCFDWGPGTLV
VL: ELVMTQSPATLSVSPGERASLSCRASQSVSSNLAWYQQKPGQAPRLLIYGASTRATGLPARFSGSGSGTEFTLTISSLQSEDFAIYYCQQYNNWPRTFGQGTKVDI
B5: the values for the EC50 in [5] and in [6] were 0.003 µg/mL and 0.001 µg/mL, respectively.

B6: VACV-33 (antibody, V domains shown)
VH: QLQLQESGPGLVKPSETLSLTCTVSGGSISSGGYYWGWIRQPPGKGLEWIASIYYSGSTYYNPSLKSRVTISVDTSKTQFSLKLSSVTAADTAVYYCARQSSSTGGFHYWGQGTLVTVSS
VL: QSVLTQPPSVSGAPGQRVTISCTGSSSNIGAGYDVHWYQHLPGTAPKLLIYGNSNRPSGVPDRFSGSKSGTSASLAITGLQAEDEANYYCQSYDSSLSGREVFGGGTQLTVL
B6 displayed an EC50 in [1] of 0.06 µg/mL. In addition, the EC50 in experiment [2] was determined as 0.02 µg/mL. In experiment [3], this molecule returned a PRNT Emax, CPXV MV of 74%; a PRNT Emax, CPXV MV+C' of 75%; a PRNT IC50, CPXV MV of 0.5 µg/mL; a PRNT IC50, CPXV MV+C' of 0.2 µg/mL. Also, in experiment [4], the PRNT Emax, MPXV MV came out at 50% and the PRNT IC50, MPXV MV was found to be 70 µg/mL.

B7: VACV-304 (antibody, V domains shown)
VH: EVQLVESGGGLVQPGGSLRLSCVVSGFTFSNYWMSWVRQAPGKGLEWVANIKQDGSKKYYVDSVTGRFTISRDNAKNSLYLQMNSLRAEDTAVYYCATLNLELAVDAISEALKWGQGTLVTVSS
VL: SYELTQPPSVSVSPGQTARITCSGDALPKQFAYWYQQKPGQAPVVMIYKDSERPSGIPERFSGSSSGTTVTLTISGVQAEDEADYYCQSVDNSGTYEVFGGGTQLTVL
In turn, B7 came in with an EC50 in [5] of 0.05 µg/mL. In experiment [6], this molecule returned an EC50 of 0.1 µg/mL. In experiment [7], this molecule displayed a PRNT Emax, CPXV MV+C' of 79% and a PRNT IC50, CPXV MV+C' of 0.1 µg/mL.

B8: MPXV-61 (antibody, V domains shown)
V domain 1: QVQLVQSGAEVKKPGSSVKVSCKASGETFSRYAFSWVRLAPGQGLEWLGRIIPFIDIPNYAQKFQGRVTITADKSTSTAYMELSSLRSEDTAVYYCASSLPSTYYFGSGNYPWGNWLDPWGQGTLVTVSS
V domain 2: QSVVTQPPSVSAAPGQNVTISCSGSSSNIGNNYVSWYHQLPGTAPKLLIYDNDKRPSGIPDRFSGSKSGTSATLGITGLQTGDEADYYCGTWDSSLSEVVFGGGTQVTVL
Consider B8, for which the half-maximal effective concentration (EC50) in experiment [5] is 0.009 µg/mL; in experiment [6] it was 0.004 µg/mL.

B9: VACV-66 (antibody, V domains shown)
VH: QLQLQESGPGLVKPSETLSLTCTVSGDSISSNNYYWGWIRQPPGKGLEWIGSIYYSGSTYYNPSLKSRVTISVDTSKNQFSLKLSSVTAADTAVYYCARHRRVLLWFGEFQLWGQGTLVTVSS
VL: QSALTQPPSVSGAPGQRVTISCTGSSSNIGAGYDVHWYQQLPGTAPKLLIYGNINRPSGVPDRFSGSKSGTSASLAITGLQAEDEADYYCQSYDSSLSGALFGGGTQLTVL
Take B9: the EC50 in [6] is over 0.3 µg/mL.

B10: VACV-159 (antibody, V domains shown)
VH: QLQLQESGPGLVKPSETLSLTCTVSGGSISSSSYYWGWIRQPPGKGLEWIGSIYYRGSTYYNPSLKSRITISVDTSKNQFSLKLRSVTAADTAVYYCARHLRVLLWFGELLEWGQGTTVTVSS
VL: B9 VL with G32D, I54S, Y93H, A100Y, L101V, G104T, Q107K, L108V
Consider B10, for which the EC50 in experiment [5] was over 28 µg/mL; in experiment [6] it was over 14 µg/mL.

B11: MPXV-83 (antibody, V domains shown)
VH: QVQLVESGGGVVQPGRSLRLSCAASGFTFSSYSMHWVRQAPGKGLEWVAVISFDGRSNYYADSVRGRFTISRDNSKKTMYLQMNSLRLADTAVYYCARGGIGAPDPRNGLEVWGRGAPVTLSS
VL: DIQMIQSPSSLSASVGDRVTISCQATQDISNSVNWYQQKPGKAPKLLIYDASTLETGVPSRFSGGGSGTHFTFTISSLQPEDIATYYCQQFHSLPPTFGQGPKGISK
B11 returned an EC50 in experiment [1] of 0.03 µg/mL. Moreover, in experiment [2], the EC50 was 0.065 µg/mL. In experiment [3], this molecule returned a PRNT Emax, CPXV MV of 69%; a PRNT Emax, CPXV MV+C' of 78%; a PRNT IC50, CPXV MV of 0.2 µg/mL; a PRNT IC50, CPXV MV+C' of 0.1 µg/mL. Also, in experiment [4], the PRNT Emax, MPXV MV+C' worked out at 67% and the PRNT IC50, MPXV MV+C' came out at 12.5 µg/mL.

B12: VACV-128 (antibody, V domains shown)
VH: EVQLVQSGAEVKKPGATVKISCKVSGYTFTDYYMHWVQQAPGKGLKWMGLLDPLDGETIYSEKFQGKVTITADTSTDTAYMELSSLRSEDTAVYYCARELTGYLNYWGQGTLVTVSS
VL: DIQMTQSPSSLSASVGDRVTITCRASPGICNYLAWYQHKPGKVPKLLIYAASTLQSGVPSRFTGVGSGTNFTLTINNLPPENVATYYCQKYNSAPHTFGQGTKVDIK
B12 returned an EC50 in experiment [5] of 0.25 µg/mL. Moreover, in experiment [7], the PRNT Emax, CPXV MV+C' came out at 71% and the PRNT IC50, CPXV MV+C' was determined as 0.3 µg/mL.

B13: VACV-8 (antibody, V domains shown)
VH: QVQLQQWGAGLLKPSETLSLTCAGYGGSFSGYFWSWIRQPPGKGLEWIGEINHSGSTDYNPSLKSRVTISLDTSKTQFSLKLSSVTAADTAVYYCARVMTGITNYYYYYGMDVWGQGTTVTF
VL: DIQLTQSPSFLSASVGDRVTITCRASQDISSYLAWYQQKPGKAPKLLIYAASTLQSGVPSRFSGSESGTEFTLTISSLQPENFATYYCQHLNSYPRGYTFGQGTKVDIK
B13 registered an EC50 in [5] of 0.1 µg/mL. The same molecule returned an EC50 in experiment [6] of 0.06 µg/mL. In addition, in experiment [7], the PRNT Emax, CPXV MV+C' came out at 58% and the PRNT IC50, CPXV MV+C' came to 2 µg/mL.

B14: VACV-117 (antibody, V domains shown)
VH: QVQLVQSGAEVKKPGASVKVSCKASGYTFTSYDINWVRQATGQGLEWLGWMNPNSGNTKSAQKVKGRVTMTRDTSISTAYMELSSLRSEDTAVYYCARTPFDDIGYYYWGQGTLVTVS
VL: DIVMTQSPLSLSVTPGEPASISCRSSQSLLHSNGYNYLDWYLQKPGQSPQLLIYLGSNRASGVPDRFIGSGSGTDFTLKISIVEAEDVGVYYCMQALQTPGAFGPGTKVDIK
As for B14, the values for the EC50 in [5] and in [6] were 0.01 µg/mL and over 26 µg/mL, respectively.

B15: VACV-154 (antibody, V domains shown)
VH: EVQLLESGGGLVQPGESLRLSCAASGFTLRNYAMSWVRQTPGKGLEWVSAISGSGGSTYYADSVKGRFTISRDTSKNTLYVQMNSLRAEDTAVYYCAKIRLDSSGYSGAFDIWGQGTRVTVSS
VL: SYELTQPPSVSVSPGQTARITCSGDALPKQYASWYQQKPGQAPVLVIYKDSERPSGIPERFSGSSSGTTVTLTISGVQAEDEADYYCQSADSSGTYPVVFGGGTQLTVL
Molecule B15 came in with an EC50 in experiment [8] of 0.02 µg/mL. In [9], this molecule registered an EC50 of 0.02 µg/mL. In addition, the EC50 in experiment [10] came out at 0.06 µg/mL. The molecule further gave an EC50 in experiment [11] of 0.3 µg/mL. Further, in experiment [12], the PRNT Emax, MPXV MV is 66%; the PRNT Emax, MPXV MV+C' stood at 69%; the PRNT IC50, MPXV MV turned out to be 15 µg/mL; the PRNT IC50, MPXV MV+C' came to 14 µg/mL.

Source of the values: patent US11667697.
